B1: r4_43_TrROS_Hall (parent)
chain: DLVTIKVPLENLEEIKKAAEKAGFKIVSISYDKENKEVTIVIEKKK

Variants of: B1
Assay: folding stability dG (cDNA display proteolysis); higher = more stable
Details: PBS, room temperature

Point of comparison: DLVTIKVPLENLEEIKKAAEKAGFKIVSMSYDKENKEVTIVIEKKK [I29M], “folding stability dG” value 3.79 kcal/mol. Against it:
- DLVTIKVPLENLEEIKKAAEKAGFKIVYISYDKENKEVTIVIEKKK [S28Y] — higher, 3.88 kcal/mol
- DLVTIKVPLENLEEIKKAAEKAGFKIVMISYDKENKEVTIVIEKKK [S28M] — lower, 3.28 kcal/mol
- DLVTIKVPLENLEEIKKAAEKAGFKIVRISYDKENKEVTIVIEKKK [S28R] — higher, 3.88 kcal/mol
- DLVTIKVPLENLEEIKKAAEKAGFKIVEISYDKENKEVTIVIEKKK [S28E] — lower, 3.18 kcal/mol
- DLVTIKVPLENLEEIKKAAEKAGFKIVLISYDKENKEVTIVIEKKK [S28L] — lower, 3.18 kcal/mol
- DLVTIKVPLENLEEIKKAAEKAGFKIVNISYDKENKEVTIVIEKKK [S28N] — lower, 3.42 kcal/mol
- DLVTIKVPLENLEEIKKAAEKAGFKIVVISYDKENKEVTIVIEKKK [S28V] — lower, 3.22 kcal/mol
- DLVTIKVPLENLEEIKKAAEKAGFKIVQISYDKENKEVTIVIEKKK [S28Q] — lower, 3.48 kcal/mol
- DLVTIKVPLENLEEIKKAAEKAGFKIVPISYDKENKEVTIVIEKKK [S28P] — lower, 2.51 kcal/mol
- DLVTIKVPLENLEEIKKAAEKAGFKIVKISYDKENKEVTIVIEKKK [S28K] — lower, 3.52 kcal/mol
- DLVTIKVPLENLEEIKKAAEKAGFKIVWISYDKENKEVTIVIEKKK [S28W] — higher, 3.88 kcal/mol
- DLVTIKVPLENLEEIKKAAEKAGFKIVTISYDKENKEVTIVIEKKK [S28T] — lower, 3.48 kcal/mol
- DLVTIKVPLENLEEIKKAAEKAGFKIVGISYDKENKEVTIVIEKKK [S28G] — lower, 3.53 kcal/mol
- DLVTIKVPLENLEEIKKAAEKAGFKIVFISYDKENKEVTIVIEKKK [S28F] — lower, 3.77 kcal/mol
- DLVTIKVPLENLEEIKKAAEKAGFKIVIISYDKENKEVTIVIEKKK [S28I] — lower, 3.39 kcal/mol
- DLVTIKVPLENLEEIKKAAEKAGFKIVSISCDKENKEVTIVIEKKK [Y31C] — lower, 3.37 kcal/mol
- DLVTIKVPLENLEEIKKAAEKAGFKIVSISADKENKEVTIVIEKKK [Y31A] — lower, 3.06 kcal/mol
- DLVTIKVPLENLEEIKKAAEKAGFKIVSISEDKENKEVTIVIEKKK [Y31E] — lower, 3.29 kcal/mol
- DLVTIKVPLENLEEIKKAAEKAGFKIVSISDDKENKEVTIVIEKKK [Y31D] — lower, 2.58 kcal/mol
- DLVTIKVPLENLEEIKKAAEKAGFKIVSISFDKENKEVTIVIEKKK [Y31F] — lower, 3.3 kcal/mol
- DLVTIKVPLENLEEIKKAAEKAGFKIVSLSYDKENKEVTIVIEKKK [I29L] — higher, 3.85 kcal/mol
- DLVTIKVPLENLEEIKKAAEKAGFKIVSTSYDKENKEVTIVIEKKK [I29T] — lower, 3.56 kcal/mol
- DLVTIKVPLENLEEIKKAAEKAGFKIVSWSYDKENKEVTIVIEKKK [I29W] — higher, 3.93 kcal/mol
- DLVTIKVPLENLEEIKKAAEKAGFKIVSNSYDKENKEVTIVIEKKK [I29N] — lower, 1.97 kcal/mol
- DLVTIKVPLENLEEIKKAAEKAGFKIVSRSYDKENKEVTIVIEKKK [I29R] — lower, 2.47 kcal/mol
- DLVTIKVPLENLEEIKKAAEKAGFKIVSSSYDKENKEVTIVIEKKK [I29S] — lower, 2.98 kcal/mol
- DLVTIKVPLENLEEIKKAAEKAGFKIVSGSYDKENKEVTIVIEKKK [I29G] — lower, 1.61 kcal/mol
- DLVTIKVPLENLEEIKKAAEKAGFKIVSASYDKENKEVTIVIEKKK [I29A] — lower, 3.16 kcal/mol
- DLVTIKVPLENLEEIKKAAEKAGFKIVSESYDKENKEVTIVIEKKK [I29E] — lower, 3.18 kcal/mol
- DLVTIKVPLENLEEIKKAAEKAGFKIVSQSYDKENKEVTIVIEKKK [I29Q] — lower, 3.28 kcal/mol
- DLVTIKVPLENLEEIKKAAEKAGFKIVSYSYDKENKEVTIVIEKKK [I29Y] — higher, 4.25 kcal/mol
- DLVTIKVPLENLEEIKKAAEKAGFKIVSVSYDKENKEVTIVIEKKK [I29V] — lower, 3.67 kcal/mol
- DLVTIKVPLENLEEIKKAAEKAGFKIVSKSYDKENKEVTIVIEKKK [I29K] — lower, 2.44 kcal/mol
- DLVTIKVPLENLEEIKKAAEKAGFKIVSDSYDKENKEVTIVIEKKK [I29D] — lower, 1.72 kcal/mol
- DLVTIKVPLENLEEIKKAAEKAGFKIVSFSYDKENKEVTIVIEKKK [I29F] — higher, 4.07 kcal/mol
- DLVTIKVPLENLEEIKKAAEKAGFKIVSHSYDKENKEVTIVIEKKK [I29H] — lower, 2.76 kcal/mol
- DLVTIKVPLENLEEIKKAAEKAGFKIVSIDYDKENKEVTIVIEKKK [S30D] — lower, 3.5 kcal/mol
- DLVTIKVPLENLEEIKKAAEKAGFKIVSIWYDKENKEVTIVIEKKK [S30W] — lower, 3.71 kcal/mol
- DLVTIKVPLENLEEIKKAAEKAGFKIVSIYYDKENKEVTIVIEKKK [S30Y] — higher, 3.83 kcal/mol
- DLVTIKVPLENLEEIKKAAEKAGFKIVSIKYDKENKEVTIVIEKKK [S30K] — lower, 3.59 kcal/mol
- DLVTIKVPLENLEEIKKAAEKAGFKIVSIEYDKENKEVTIVIEKKK [S30E] — lower, 3.4 kcal/mol
- DLVTIKVPLENLEEIKKAAEKAGFKIVSIMYDKENKEVTIVIEKKK [S30M] — lower, 3.49 kcal/mol
- DLVTIKVPLENLEEIKKAAEKAGFKIVSIRYDKENKEVTIVIEKKK [S30R] — lower, 3.62 kcal/mol
- DLVTIKVPLENLEEIKKAAEKAGFKIVSIIYDKENKEVTIVIEKKK [S30I] — lower, 3.66 kcal/mol
- DLVTIKVPLENLEEIKKAAEKAGFKIVSIHYDKENKEVTIVIEKKK [S30H] — lower, 3.68 kcal/mol
- DLVTIKVPLENLEEIKKAAEKAGFKIVSIGYDKENKEVTIVIEKKK [S30G] — lower, 3.22 kcal/mol
- DLVTIKVPLENLEEIKKAAEKAGFKIVSITYDKENKEVTIVIEKKK [S30T] — lower, 3.66 kcal/mol
- DLVTIKVPLENLEEIKKAAEKAGFKIVSICYDKENKEVTIVIEKKK [S30C] — lower, 3.53 kcal/mol
- DLVTIKVPLENLEEIKKAAEKAGFKIVSILYDKENKEVTIVIEKKK [S30L] — lower, 3.74 kcal/mol
- DLVTIKVPLENLEEIKKAAEKAGFKIVSIPYDKENKEVTIVIEKKK [S30P] — lower, 0.669 kcal/mol
- DLVTIKVPLENLEEIKKAAEKAGFKIVSIFYDKENKEVTIVIEKKK [S30F] — higher, 3.9 kcal/mol
- DLVTIKVPLENLEEIKKAAEKAGFKIVSIQYDKENKEVTIVIEKKK [S30Q] — lower, 3.47 kcal/mol
- DLVTIKVPLENLEEIKKAAEKAGFKIVSINYDKENKEVTIVIEKKK [S30N] — the same, 3.79 kcal/mol
- DLVTIKVPLENLEEIKKAAEKAGFKIVSIVYDKENKEVTIVIEKKK [S30V] — higher, 3.96 kcal/mol
- DLVTIKVPLENLEEIKKAAEKAGFKIVSIAYDKENKEVTIVIEKKK [S30A] — lower, 3.4 kcal/mol

— the MegaScale stability set (Tsuboyama et al. 2023)
